{"source": "paper PMC6225287", "about": "(2018)", "target": "FGF-2 (Homo sapiens, UniProt P09038)", "sequence (P09038 143-288)": "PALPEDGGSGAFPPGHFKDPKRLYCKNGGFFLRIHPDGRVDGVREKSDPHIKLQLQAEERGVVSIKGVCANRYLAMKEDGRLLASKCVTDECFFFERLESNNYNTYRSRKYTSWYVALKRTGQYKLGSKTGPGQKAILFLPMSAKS", "assay": "SPR"}
{"binder": "QEDYDKDGIGDACDD", "note": "[DD15 peptide (thrombospondin-1) type III repeats]", "values": [{"measurement": "Kd", "result": 28, "unit": "µM"}]}
